From patent US20250197483A1 come the findings set out here.

This assay concerns the target HIV-1 Env of the 208-virus panel (Env-pseudoviruses). In words: cell-based or functional assay.

Residue numbers refer to the chain shown, from its start.

B1: VRC07-523LS.v14 (antibody, V domains shown)
VH: QVRLSQSGGQMKKPGDSMRISCDASGYEFINCPINWIRLAPGKRPEWMGWMKPRFGAVSYARQLQGRVTMTRQLSQDPDDPDWGTAFLELRSLTSDDTAVYFCTRGKYCTARDYYNWDFEHWGQGTPVTVSS
VL: LTQSPGTLSLSPGETAIISCDTSQYGSLAWYQQRPGQAPRLVIYSGSTRAAGIPDRFSGSRWGPDYNLTISNLESGDFGVYYCQQYEFFGQGTKVQVDI
In the case of B1, the neutralization of Env-pseudoviruses on TZM-bl cells, share of the panel at IC80 less than 1 µg/ml (% of the 208-virus panel) is 92.

B2: VRC07-523LS.v32 (antibody, V domains shown)
VH: B1 VH with D23S, K107S
VL: B1 VL with D21S
Consider B2, for which the neutralization of Env-pseudoviruses on TZM-bl cells, share of the panel at IC80 less than 1 µg/ml (% of the 208-virus panel) worked out at 92.

B3: N6LS.C1 (antibody, V domains shown)
VH: RAHLVQSGTAMKKPGASVRVSCQTSGYTFTAHILFWFRQAPGRGLEWVGWIKPQYGAVNFGGGFRDRVTLTRQLSQDPDDPDWGIAYMDIDGLKPDDTAVYYCARDRSYGDSSWALDAWGQGTTVVVSA
VL: YIHVTQSPSSLSVSIGDDVTINCQTSQGVGSDLHWYQHKPGRAPKLLIHHTSSVEDGVPSRFSGSGFHTSFNLTISDLQADDIATYYCQVLQFFGRGSRLHIKR
In turn, B3 returned a neutralization of Env-pseudoviruses on TZM-bl cells, share of the panel at IC80 <1 µg/ml (% of 208 viruses) of over 73 and a neutralization of Env-pseudoviruses on TZM-bl cells, share of the panel at IC80<1 µg/ml (% of viruses (208-virus panel)) of 73.

B4: N6LS.C30 (antibody, V domains shown)
VH: B3 VH with K13E, D91R
VL: B3 VL with D18E
B4 had a neutralization of Env-pseudoviruses on TZM-bl cells, share of the panel at IC80 <1 µg/ml (% of 208 viruses) of over 73 and a neutralization of Env-pseudoviruses on TZM-bl cells, share of the panel at IC80<1 µg/ml (% of viruses (208-virus panel)) of 77.
